Laboratory results published in US20220372484A1.

Target: human FPR2 (transcript variant 1; Origene) fused with mGFP (human) (UniProt P25090)
Test: cell-based or functional assay

Inhibition (%) of forskolin-mediated cAMP production: 46%
Substance: LL37 peptide (from UniProt P49913 134-170)
